In paper doi:10.1101/2024.11.26.625551 (bioRxiv, 2024):
Each block holds one binder with its values, some of them ahead of it.

What was measured:
[1] = target: endogenous CAV1 (HeLa) (Homo sapiens (HeLa), UniProt Q03135); assay: co-IP
[2] = target: endogenous Cavin1 (HeLa) (Homo sapiens (HeLa), UniProt Q6NZI2); assay: co-IP
[3] = target: mouse Cavin1 HR1 domain (His-Ub construct) (Mus musculus (Mouse)., UniProt O54724); assay: ITC
[4] = target: zebrafish Cavin4b HR1 domain (Danio rerio, UniProt A0A8M1N3J3); assay: ITC
[5] = target: the molecule itself; assay: crystal structure
[6] = target: zebrafish Cavin4a HR1 domain (Danio rerio, UniProt A1L260); assay: ITC
Sequence of zebrafish Cavin4a HR1 domain (A1L260 whole entry, looked up, the tested form may be a part): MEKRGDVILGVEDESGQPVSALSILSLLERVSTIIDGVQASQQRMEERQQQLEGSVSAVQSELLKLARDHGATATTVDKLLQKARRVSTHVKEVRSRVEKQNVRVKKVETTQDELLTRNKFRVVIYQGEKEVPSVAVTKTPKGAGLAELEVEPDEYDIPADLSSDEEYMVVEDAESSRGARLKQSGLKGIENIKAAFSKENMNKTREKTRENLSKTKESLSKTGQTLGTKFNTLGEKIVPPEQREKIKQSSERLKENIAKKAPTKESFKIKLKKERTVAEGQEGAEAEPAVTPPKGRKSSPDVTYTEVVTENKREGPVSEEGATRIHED

[7] = target: His-MBP full-length mouse Cavin1 (Mus musculus (Mouse)., UniProt O54724); assay: ITC
Sequence of His-MBP full-length mouse Cavin1 (O54724 whole entry, the tested form may be a part): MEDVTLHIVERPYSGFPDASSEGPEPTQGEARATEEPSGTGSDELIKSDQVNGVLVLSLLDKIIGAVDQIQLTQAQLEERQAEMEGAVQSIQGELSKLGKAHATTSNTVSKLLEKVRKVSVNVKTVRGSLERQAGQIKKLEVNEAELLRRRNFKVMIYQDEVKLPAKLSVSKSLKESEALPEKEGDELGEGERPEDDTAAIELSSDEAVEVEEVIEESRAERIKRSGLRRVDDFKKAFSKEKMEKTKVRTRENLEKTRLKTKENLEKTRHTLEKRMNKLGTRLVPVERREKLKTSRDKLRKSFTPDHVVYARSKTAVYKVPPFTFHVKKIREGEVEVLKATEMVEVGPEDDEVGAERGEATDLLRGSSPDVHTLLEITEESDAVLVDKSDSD

[8] = target: mouse Cavin1 HR1 N-terminal fragment mC1-HR1(45-103) (Mus musculus, UniProt O54724); assay: ITC
[9] = target: GST-tagged mouse Cavin1 HR1 domain (Mus musculus, UniProt O54724); assay: pull-down

Sequence of endogenous CAV1 (HeLa) (Q03135 whole entry): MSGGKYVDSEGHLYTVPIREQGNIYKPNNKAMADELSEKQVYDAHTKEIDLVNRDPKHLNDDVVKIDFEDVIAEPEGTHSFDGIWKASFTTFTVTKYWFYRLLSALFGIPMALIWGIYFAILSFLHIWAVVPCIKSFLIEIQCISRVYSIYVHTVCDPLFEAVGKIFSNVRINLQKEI
Sequence of endogenous Cavin1 (HeLa) (Q6NZI2 whole entry, the tested form may be a part): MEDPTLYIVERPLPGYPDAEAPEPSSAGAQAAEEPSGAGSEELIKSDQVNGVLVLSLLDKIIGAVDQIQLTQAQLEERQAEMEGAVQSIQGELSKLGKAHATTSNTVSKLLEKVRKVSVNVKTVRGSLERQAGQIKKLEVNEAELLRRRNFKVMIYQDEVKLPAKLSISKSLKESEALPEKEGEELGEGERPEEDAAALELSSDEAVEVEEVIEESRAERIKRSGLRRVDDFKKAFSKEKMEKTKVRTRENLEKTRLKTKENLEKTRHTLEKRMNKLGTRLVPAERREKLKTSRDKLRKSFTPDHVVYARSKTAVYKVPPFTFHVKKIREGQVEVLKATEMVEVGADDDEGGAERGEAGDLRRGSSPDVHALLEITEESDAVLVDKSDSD

binding result [1]: binds | binding result [2]: binds
B1: NbB7-GFP (VHH)
VHH: QVQLQESGGGLVQAGGSLRLSCAVSGIRVNVNAMYWYRQAPGKQRELVAIITTFGSTNYADSAKGRFTISRDNTKNTVYLQMDNLKPEDTAVYYCNAPQFTDRYWGQGTQVTVSS

Kd [3]: 520 nM | binding result [4]: no binding
B2: nanobody NbB7 (VHH)
VHH: B1 VHH

B3: mouse Cavin1 HR1 domain (as crystallised with NbB7) (domain or fragment, UniProt O54724 45-155, looked up)
chain: LIKSDQVNGVLVLSLLDKIIGAVDQIQLTQAQLEERQAEMEGAVQSIQGELSKLGKAHATTSNTVSKLLEKVRKVSVNVKTVRGSLERQAGQIKKLEVNEAELLRRRNFKV
stoichiometry N [5]: 3

binding result [3]: binds | binding result [6]: no binding | binding result [7]: binds | binding result [8]: binds | binding result [4]: no binding | binding result [9]: binds
B4: nanobody NbA12 (VHH)
VHH: QVQLQESGGGLVQAGGSLRLSCAASGFTFDDYAIGWFRQAPGKEREGVSCITSSDGSTYYADSVKGRFTISSDNAKNTVYLQMNSLKPEDTAVYYCAAESWPPLCHYSGMDYWGKGTQVTVSS
